In PMC12241546, “PRELP functions via multiple interactions with intrinsically weak affinity relying on ECM anchoring and remodeling” (Scientific Reports, 2025) one finds Kd, koff and kon data, which are given here for 5 molecules.

First the molecules themselves.
B2: Recombinant human full-length PRELP (proline/arginine-rich end leucine-rich repeat protein) (natural protein, UniProt P51888 21-382, looked up)
chain: QPTRRPRPGTGPGRRPRPRPRPTPSFPQPDEPAEPTDLPPPLPPGPPSIFPDCPRECYCPPDFPSALYCDSRNLRKVPVIPPRIHYLYLQNNFITELPVESFQNATGLRWINLDNNRIRKIDQRVLEKLPGLVFLYMEKNQLEEVPSALPRNLEQLRLSQNHISRIPPGVFSKLENLLLLDLQHNRLSDGVFKPDTFHGLKNLMQLNLAHNILRKMPPRVPTAIHQLYLDSNKIETIPNGYFKSFPNLAFIRLNYNKLTDRGLPKNSFNISNLLVLHLSHNRISSVPAINNRLEHLYLNNNSIEKINGTQICPNDLVAFHDFSSDLENVPHLRYLRLDGNYLKPPIPLDLMMCFRLLQSVVI
notes: human PRELP, amino acid residues 21-382 (Uniprot numbering); source: Mimic Sf9 cells, purified from the supernatant (DDDDK-tagged Protein Purification Gel, Benzonase, SEC); not shown: FLAG, C-terminal, kept
B5: Recombinant extracellular domain of human p75NTR (low-affinity nerve growth factor receptor) (receptor, UniProt P08138 29-189, looked up)
chain: KEACPTGLYTHSGECCKACNLGEGVAQPCGANQTVCEPCLDSVTFSDVVSATEPCKPCTECVGLQSMSAPCVEADDAVCRCAYGYYQDETTGRCEACRVCEAGSGLVFSCQDKQNTVCEECPDGTYSDEANHVDPCLPCTVCEDTERQLRECTRWADAECE
notes: also called p75NTR ectodomain; source: Sf9 cells, purified from the culture supernatant (Ni-NTA, SEC)

Holding throughout (details): both partners purified
For assay [1], the target named is T1, Recombinant mature TGFβ1 dimer (transforming growth factor β1) (human, UniProt P01137 279-390).
T1 construct: mature TGFβ1 cut from the human TGFβ1 pro-protein (expressed as amino acid residues 30-390, Uniprot, with C33S in the pro-region); source: ExpiCHO cells, transfected
T1 sequence (P01137 279-390): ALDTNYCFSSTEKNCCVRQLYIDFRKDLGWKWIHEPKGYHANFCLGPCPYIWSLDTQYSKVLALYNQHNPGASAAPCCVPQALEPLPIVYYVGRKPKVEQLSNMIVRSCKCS
Nature of the assay: SPR; Biacore T200; PRELP proteins immobilised on CM5 by amine coupling (about 400 RU; chPRELP about 600 RU); TGFβ1 or TGFβRII injected at 30 µL/min; 10 mM HEPES pH 7.5, 150 mM NaCl, 50 mM arginine-HCl, 0.05% Tween-20, 15 °C; global fitting. In general terms: Surface plasmon resonance follows binding to a sensor surface in real time, without labels.

Assay [2] addresses B5. Nature of the assay: SPR; Biacore T200; PRELP proteins immobilised on CM5 by amine coupling (about 4000 RU; chPRELP about 600 RU for IGFI-R, 2000 RU for p75NTR); IGFI-R or p75NTR injected at 30 µL/min; 10 mM HEPES pH 7.5, 150 mM NaCl, 0.05% Tween-20, 15 °C; equilibrium curve fitting.
The target of assay [3] is T2, Recombinant extracellular domain of human IGFI-R (insulin-like growth factor I receptor) (human, UniProt P08069 31-935).
T2 construct: extracellular domain of human IGFI-R, amino acid residues 31-935 (Uniprot); also called IGFI-R ectodomain; source: ExpiCHO cells, purified from the culture supernatant (Ni-NTA, SEC)
T2 sequence (P08069 31-935): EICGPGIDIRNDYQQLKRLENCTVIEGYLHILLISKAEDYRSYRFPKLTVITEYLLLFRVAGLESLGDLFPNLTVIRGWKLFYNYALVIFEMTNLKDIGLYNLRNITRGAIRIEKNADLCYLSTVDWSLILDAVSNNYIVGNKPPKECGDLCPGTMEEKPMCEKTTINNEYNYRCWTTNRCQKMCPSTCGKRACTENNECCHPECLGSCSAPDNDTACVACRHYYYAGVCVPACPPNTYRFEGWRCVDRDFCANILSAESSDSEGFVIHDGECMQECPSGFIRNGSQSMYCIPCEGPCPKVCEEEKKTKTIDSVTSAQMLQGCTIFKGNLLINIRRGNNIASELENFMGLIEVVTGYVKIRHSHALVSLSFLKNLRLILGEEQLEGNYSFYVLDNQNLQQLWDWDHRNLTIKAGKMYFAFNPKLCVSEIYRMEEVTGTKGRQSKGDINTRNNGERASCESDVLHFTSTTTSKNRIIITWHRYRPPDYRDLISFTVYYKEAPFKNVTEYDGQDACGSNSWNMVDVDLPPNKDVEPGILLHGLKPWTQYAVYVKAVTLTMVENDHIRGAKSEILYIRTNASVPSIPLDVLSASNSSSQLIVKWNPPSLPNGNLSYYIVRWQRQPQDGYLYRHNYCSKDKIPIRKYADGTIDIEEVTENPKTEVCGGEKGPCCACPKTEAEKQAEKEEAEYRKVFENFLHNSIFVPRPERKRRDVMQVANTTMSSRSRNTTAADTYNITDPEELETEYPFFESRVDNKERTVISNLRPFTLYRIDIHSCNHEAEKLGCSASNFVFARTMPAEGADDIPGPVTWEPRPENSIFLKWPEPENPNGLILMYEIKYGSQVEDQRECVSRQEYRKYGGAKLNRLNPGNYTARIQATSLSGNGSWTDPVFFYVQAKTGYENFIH
The assay is described as above.

Assay [4] has as its target T2, Recombinant extracellular domain of …. The description is as above. This is another data set of the same source.
Assay [5] has as its target B2. Described as above.

A word on the Kd: it is the constant that tells how readily two partners part at equilibrium. In general, koff refers to the first-order rate constant of dissociation. Broadly, the kon is a measure of how fast the partners come together.

B1: N-terminal-truncated PRELP ΔNT24 (domain or fragment)
chain: SFPQPDEPAEPTDLPPPLPPGPPSIFPDCPRECYCPPDFPSALYCDSRNLRKVPVIPPRIHYLYLQNNFITELPVESFQNATGLRWINLDNNRIRKIDQRVLEKLPGLVFLYMEKNQLEEVPSALPRNLEQLRLSQNHISRIPPGVFSKLENLLLLDLQHNRLSDGVFKPDTFHGLKNLMQLNLAHNILRKMPPRVPTAIHQLYLDSNKIETIPNGYFKSFPNLAFIRLNYNKLTDRGLPKNSFNISNLLVLHLSHNRISSVPAINNRLEHLYLNNNSIEKINGTQICPNDLVAFHDFSSDLENVPHLRYLRLDGNYLKPPIPLDLMMCFRLLQSVVI
modifications: secreted from insect cells (Mimic Sf9), possible N-glycans; C-terminal FLAG tag omitted. The start at 45 is 24 residues removed from the printed mature construct 21-382, which matches removal of the …
As to B1, the Kd is 0.512 µM in assay [1], 11.3 µM in assay [2] and 3.9 µM in assay [3]. Besides, the koff in assay [1] turned out to be 0.142 s⁻¹. Further, in assay [1], the kon is 277000 M⁻¹ s⁻¹.

As for B2, the Kd in assay [4] was found to be 7.09 µM.

B3: Recombinant chimeric PRELP (human PRELP 1-268 joined to Listeria monocytogenes internalin B 189-248) (other)
chain: QPTRRPRPGTGPGRRPRPRPRPTPSFPQPDEPAEPTDLPPPLPPGPPSIFPDCPRECYCPPDFPSALYCDSRNLRKVPVIPPRIHYLYLQNNFITELPVESFQNATGLRWINLDNNRIRKIDQRVLEKLPGLVFLYMEKNQLEEVPSALPRNLEQLRLSQNHISRIPPGVFSKLENLLLLDLQHNRLSDGVFKPDTFHGLKNLMQLNLAHNILRKMPPRVPTAIHQLYLDSNKIETIPNGYFKSFPNLDTLSLEDNQISDIVPLAGLTKLQNLYLSKNHISDLRALAGLKNLDVLELFSQECLNKPIN
notes: signal peptide in the construct; human PRELP, amino acid residues 1-268 (Uniprot), N-terminal half portion with LRR1-7; also called chPRELP; source: Expi293 cells, transfected, purified from the culture supernatant (FLAG-tag purification, SEC)
For B3, the Kd is 1.21 µM in assay [1], 14.5 µM in assay [2] and 15.4 µM in assay [3]. Further, the koff in assay [1] came out at 0.362 s⁻¹. In addition, in assay [1], the kon worked out at 241000 M⁻¹ s⁻¹.

B4: N-terminal-truncated PRELP ΔNT50 (domain or fragment)
chain: PDCPRECYCPPDFPSALYCDSRNLRKVPVIPPRIHYLYLQNNFITELPVESFQNATGLRWINLDNNRIRKIDQRVLEKLPGLVFLYMEKNQLEEVPSALPRNLEQLRLSQNHISRIPPGVFSKLENLLLLDLQHNRLSDGVFKPDTFHGLKNLMQLNLAHNILRKMPPRVPTAIHQLYLDSNKIETIPNGYFKSFPNLAFIRLNYNKLTDRGLPKNSFNISNLLVLHLSHNRISSVPAINNRLEHLYLNNNSIEKINGTQICPNDLVAFHDFSSDLENVPHLRYLRLDGNYLKPPIPLDLMMCFRLLQSVVI
modifications: secreted from insect cells (Mimic Sf9), possible N-glycans; C-terminal FLAG tag omitted. The start at 71 is 50 residues removed from the printed mature construct 21-382, just before the Cys-rich …
In the case of B4, the results for the Kd in assay [1], in assay [2] and in assay [3] were 1.55 µM, 11.7 µM and 6.97 µM, respectively. Further, the koff in assay [1] came to 0.169 s⁻¹. Besides, in assay [1], the kon was determined as 75100 M⁻¹ s⁻¹.

As for B5, the Kd in assay [5] amounted to 12.7 µM.
